In one test the target is T1, HLA A2 (Homo sapiens, UniProt P04439, D140Y/D185E/D98H/E176V/E277Q/G131W/G231S/I119V/I121R/I166T/I218V/L300P/L318F/N151K/N90K/P208A/P217A/Q86G/Q94H/R138H/R169H/T345S).
T1 construct: endogenous in cells; host or cells: T2 cells
In kind it is cell-based. To be noted: HLA A2 on T2 cells; relative increase in HLA expression vs no peptide at 26° C.

In test [1] the test system is PBMC from healthy HCMV seropositive donors. The experiment in a line: IFN-γ ELISPOT assay. In kind it is cell-based, human. To be noted: peptide 10 μg/ml. As to the method:
ELISPOT assay was used to assess whether stimulation of PBMC from a large panel of seropositive donors with HCMV peptides could induce IFN-γ expression in T cells. Briefly, a 96-well nitrocellulose plate (Multiscreen, Millipore) was coated overnight at 4° C. with mouse monoclonal antibody anti-IFN-γ IgG1 (10 μg/ml; Mabtech Nacka, Sweden). The plate was then washed six times in Phosphate Buffered Saline (PBS) and blocked for 1 hour at 37° C. with PBS supplemented with 5% FCS. The blocking solution was removed and PBMC from healthy HCMV seropositive donors were added at a concentration of 2.5×10^5 cells per well in growth medium. These cells were incubated for 18 h at 37° C. in a 5% CO2 atmosphere in the presence of synthetic peptides from HCMV antigens (10 μg/ml). After incubation, the plate was washed three times with PBS supplemented with 0.05% Tween, followed by three washes with PBS alone. Biotinylated anti-IFN-γ (Mabtech, Nacka Sweden) detection antibody was added to each well at a final concentration of 1 μg/ml in PBS. The plates were incubated at room temperature in the dark for 4 h and then washed, as described above. Streptavidin-Alkaline phosphatase (Sigma) was added to each well at a final concentration of 1 μg/ml in PBS and incubated at room temperature in the dark for 2 h. After a final wash with PBS, the substrate, 5-bromo-4-chloro-3-indolyl phosphate and nitro blue tetrazolium, was added to each well and the plates incubated for 30 min at RT. Cells that produced IFN-γ in response to the presence of peptide were detected as purple spots on the nitrocellulose membrane of each well. The spots were counted automatically using a closed-circuit camera (CCD) and ImagePro image analysis software or automated ELISPOT reader (AID, Germany). The T cell precursor frequency for each peptide was based on the total number of PBMC in the well and the number of peptide-specific spots per well, over an average of 3 wells. The number of peptide-specific spots was also calculated by subtracting the negative control values, which consisted of PBMC without peptide (an average of 3 wells), from the test wells.
To determine whether memory CTL responses against the predictive HCMV potential epitopes could be detected in healthy seropositive virus carriers, we used the ELISPOT assay, which allows rapid identification of CTL epitopes without prolonged in vitro culture.
We tested epitopes that were restricted for HLA A1, A3, A24, A26, B7, B8, B27, B35 and B44 in ELISPOT assays, to determine whether memory T cell responses could be detected in healthy HLA-matched virus carriers. PBMC from a cohort of healthy virus carriers (Table 2) were stimulated with individual peptides and the cells that produced IFN-γ were detected. CTL epitopes that were restricted through either HLA A1, A3, A24, A26, B7, B8 or B27, were identified.
Thus, a total of 450 peptides were produced. ELISPOT assays were used to determine whether ex vivo memory T cell responses could be detected in a cohort of 14 healthy virus carriers (Table 2). PBMC were stimulated with individual peptides and the cells that produced IFN-γ were detected.

For the sequence “LIEDFDIYV (human cytomegalovirus pp150 CTL epitope peptide)”, the “MSE (MHC stabilization efficiency)” value with HLA A2 is on record as “++ (++ = 100-199%)”. In test [1] (donor ten), the “ELISPOT Responses (SFC/10^6 PBMC)” value was “WS(88) SFC/10^6 PBMC”.

Consider QMWQARLTV, for which, in the test with HLA A2, the “MSE (MHC stabilization efficiency)” value is on record as “+ (+ = 51-99%)”.

As for “LLGALNLCL (human cytomegalovirus IE2 CTL epitope peptide)”, the “MSE (MHC stabilization efficiency)” value in the test with HLA A2 is “++ (++ = 100-199%)”.

For “LLVEPCARV (human cytomegalovirus pp28 CTL epitope peptide)”, the “MSE (MHC stabilization efficiency)” value with HLA A2 was “++ (++ = 100-199%)”.

As to “LLIPKSFTL (human cytomegalovirus pp71 CTL epitope peptide)”, the “MSE (MHC stabilization efficiency)” value with HLA A2 is reported as “− (− = 0-50%)”.

Take VIGDQYVKV [reference compound]: in the test with HLA A2, the “MSE (MHC stabilization efficiency)” value was “++ (++ = 100-199%)”.

Regarding “SLVRLVYIL (human cytomegalovirus gH CTL epitope peptide)”, the “MSE (MHC stabilization efficiency)” value with HLA A2 is on record as “+ (+ = 51-99%)”.

Consider “FLLSHDAAL (human cytomegalovirus pp28 CTL epitope peptide)”, for which, in the test with HLA A2, the “MSE (MHC stabilization efficiency)” value is “++ (++ = 100-199%)”.

As to “LLSEFCRVL (human cytomegalovirus IE1 CTL epitope peptide)”, the “MSE (MHC stabilization efficiency)” value with HLA A2 is recorded as “++ (++ = 100-199%)”.

Turning to “PLIPTTAVI (human cytomegalovirus pp150 CTL epitope peptide)”, in the test with HLA A2, the “MSE (MHC stabilization efficiency)” value is recorded as “− (− = 0-50%)”.

As to “NILQKIEKI (human cytomegalovirus pp150 CTL epitope peptide)”, in the test with HLA A2, the “MSE (MHC stabilization efficiency)” value is listed as “+ (+ = 51-99%)”.

Take “GLDDLMSGL (human cytomegalovirus gB CTL epitope peptide)”: in the test with HLA A2, the “MSE (MHC stabilization efficiency)” value was “++ (++ = 100-199%)”.

Take “YINRALAQI (human cytomegalovirus gB CTL epitope peptide)”: the “MSE (MHC stabilization efficiency)” value with HLA A2 was “++ (++ = 100-199%)”.

With “PLREYLADL (human cytomegalovirus pp28 CTL epitope peptide)”, in the test with HLA A2, the “MSE (MHC stabilization efficiency)” value is on record as “− (− = 0-50%)”.

Take “QLLIPKSFTL (human cytomegalovirus pp71 CTL epitope peptide)”: the “MSE (MHC stabilization efficiency)” value with HLA A2 is given as “− (− = 0-50%)”.

In the case of ALFFFDIDL [reference compound], in the test with HLA A2, the “MSE (MHC stabilization efficiency)” value is recorded as “++ (++ = 100-199%)”.

For the sequence “QMLLALARL (human cytomegalovirus gB CTL epitope peptide)”, in the test with HLA A2, the “MSE (MHC stabilization efficiency)” value is on record as “+ (+ = 51-99%)”.

As for “LLYPTAVDL (human cytomegalovirus gH CTL epitope peptide)”, in the test with HLA A2, the “MSE (MHC stabilization efficiency)” value is “+++ (+++ = 200-300%)”.

Take “TLLVYLFSL (human cytomegalovirus US3 CTL epitope peptide)”: the “MSE (MHC stabilization efficiency)” value in the test with HLA A2 is recorded as “++ (++ = 100-199%)”.

Take “LMQKFPKQV (human cytomegalovirus IE2 CTL epitope peptide)”: the “MSE (MHC stabilization efficiency)” value with HLA A2 was “+ (+ = 51-99%)”.

As to “DLDEGIMVV (human cytomegalovirus gB CTL epitope peptide)”, the “MSE (MHC stabilization efficiency)” value in the test with HLA A2 was “− (− = 0-50%)”.

As for “QLRSVIRAL (human cytomegalovirus pp50 CTL epitope peptide)”, in the test with HLA A2, the “MSE (MHC stabilization efficiency)” value was “− (− = 0-50%)”.

For “NLFPYLVSA (human cytomegalovirus gB CTL epitope peptide)”, the “MSE (MHC stabilization efficiency)” value with HLA A2 was “++ (++ = 100-199%)”.

Consider “LLLIVTPVV (human cytomegalovirus pp28 CTL epitope peptide)”, for which, in the test with HLA A2, the “MSE (MHC stabilization efficiency)” value is given as “++ (++ = 100-199%)”.

Consider “ILDEERDKV (human cytomegalovirus IE1 CTL epitope peptide)”, for which the “MSE (MHC stabilization efficiency)” value with HLA A2 is “++ (++ = 100-199%)”.

Consider “NLALSTPFL (human cytomegalovirus IE2 CTL epitope peptide)”, for which the “MSE (MHC stabilization efficiency)” value with HLA A2 is reported as “++ (++ = 100-199%)”.

As to “YLTVFTVYL (human cytomegalovirus gH CTL epitope peptide)”, the “MSE (MHC stabilization efficiency)” value in the test with HLA A2 was “++ (++ = 100-199%)”.

Consider “TMWCLTLFV (human cytomegalovirus UL18 CTL epitope peptide)”, for which, in the test with HLA A2, the “MSE (MHC stabilization efficiency)” value is “++ (++ = 100-199%)”.

On to “ALDPYNEVV (human cytomegalovirus gH CTL epitope peptide)”, for which the “MSE (MHC stabilization efficiency)” value with HLA A2 is listed as “+++ (+++ = 200-300%)”.

As to “CVETMCNEY (human cytomegalovirus IE1 CTL epitope peptide) [reference compound]”, the “ELISPOT Responses (SFC/10^6 PBMC)” value in test [1] (donor sixteen) was “TC(4187) SFC/10^6 PBMC”.

Take “LLMMSVYAL (human cytomegalovirus gH CTL epitope peptide)”: the “MSE (MHC stabilization efficiency)” value with HLA A2 was “++ (++ = 100-199%)”.

In the case of “YEQHKITSY (human cytomegalovirus pp50 CTL epitope peptide)”, in test [1] (donor five), the “ELISPOT Responses (SFC/10^6 PBMC)” value is recorded as “CS(67) SFC/10^6 PBMC”.

Take “HANTALVNAVNKLVYTGRLI (human cytomegalovirus pp150 CTL epitope peptide)”: the “ELISPOT Responses (SFC/10^6 PBMC)” value in test [1] (donor three) is given as “MW(122) SFC/10^6 PBMC”.

As for “TMYGGISLL (human cytomegalovirus IE1 CTL epitope peptide)”, the “MSE (MHC stabilization efficiency)” value with HLA A2 is “++ (++ = 100-199%)”.

On to “SAIIGIYLL (human cytomegalovirus gH CTL epitope peptide)”, for which the “MSE (MHC stabilization efficiency)” value with HLA A2 was “− (− = 0-50%)”.

For the sequence “RIEENLEGV (human cytomegalovirus pp150 CTL epitope peptide)”, in the test with HLA A2, the “MSE (MHC stabilization efficiency)” value is reported as “+ (+ = 51-99%)”.

On to “IILVAIAVV (human cytomegalovirus gB CTL epitope peptide)”, for which the “MSE (MHC stabilization efficiency)” value in the test with HLA A2 was “+ (+ = 51-99%)”.

Turning to “ILGADPLRV (human cytomegalovirus IE1 CTL epitope peptide)”, the “MSE (MHC stabilization efficiency)” value with HLA A2 is “++ (++ = 100-199%)”.

On to PLGRPDEDSSSSSSSSCSSA, for which, in test [1] (donor sixteen), the “ELISPOT Responses (SFC/10^6 PBMC)” value is “TC(46) SFC/10^6 PBMC”.

In the case of “FLGARSPSL (human cytomegalovirus pp150 CTL epitope peptide)”, the “MSE (MHC stabilization efficiency)” value with HLA A2 is reported as “++ (++ = 100-199%)”.

Consider “ILFDGHDLL (human cytomegalovirus gH CTL epitope peptide)”, for which the “MSE (MHC stabilization efficiency)” value with HLA A2 is “+++ (+++ = 200-300%)”.

With TVQGQNLKY, the “ELISPOT Responses (SFC/10^6 PBMC)” value in test [1] (donor eleven) turned out to be 385 SFC/10^6 PBMC; in test [1] (donor sixteen), 251 SFC/10^6 PBMC.

As for “TLVIPSWHV (human cytomegalovirus pp71 CTL epitope peptide)”, in the test with HLA A2, the “MSE (MHC stabilization efficiency)” value is recorded as “++ (++ = 100-199%)”.

As to “YLLYRMLKT (human cytomegalovirus gH CTL epitope peptide)”, the “MSE (MHC stabilization efficiency)” value with HLA A2 is “− (− = 0-50%)”.

As to “LDEGIMVVY (human cytomegalovirus gB CTL epitope peptide)”, the “ELISPOT Responses (SFC/10^6 PBMC)” value in test [1] (donor sixteen) is “TC(239) SFC/10^6 PBMC”.

In the case of KCSSGGGASVTSSHHGRGGF, in test [1] (donor sixteen), the “ELISPOT Responses (SFC/10^6 PBMC)” value is listed as “TC(54) SFC/10^6 PBMC”.

For the sequence “TLTEDFFVV (human cytomegalovirus gH CTL epitope peptide)”, the “MSE (MHC stabilization efficiency)” value with HLA A2 was “++ (++ = 100-199%)”.

For the sequence “GLLGASMDL (human cytomegalovirus pp28 CTL epitope peptide)”, in the test with HLA A2, the “MSE (MHC stabilization efficiency)” value is reported as “− (− = 0-50%)”.

Regarding “YLMDELRYV (human cytomegalovirus gH CTL epitope peptide)”, the “MSE (MHC stabilization efficiency)” value with HLA A2 was “++ (++ = 100-199%)”.

For the sequence “ATSTGDVVY (human cytomegalovirus gB CTL epitope peptide)”, the “ELISPOT Responses (SFC/10^6 PBMC)” value in test [1] (donor sixteen) is on record as “TC(239) SFC/10^6 PBMC”.

As to RVKIDEVSRMFRNTNRSLEY, the entries for the “ELISPOT Responses (SFC/10^6 PBMC)” value in test [1] (donor epsilon) and in test [1] (donor sixteen) were 306 SFC/10^6 PBMC and 194 SFC/10^6 PBMC, respectively.

With ALTVSEHVSYVVTNQYLIKG, the “ELISPOT Responses (SFC/10^6 PBMC)” value in test [1] (donor four) is reported as “MB(23) SFC/10^6 PBMC”.

With “DLVPLTVSV (human cytomegalovirus pp71 CTL epitope peptide)”, in the test with HLA A2, the “MSE (MHC stabilization efficiency)” value is “+ (+ = 51-99%)”.

Values taken from patent US7524503B2, “Human cytomegalovirus (HCMV) cytotoxic T cell epitopes, polyepitopes compositions comprising same and diagnostic and prophylactic and therapeutic uses therefor” (priority 2001, dated 2009).
